The record followed here is patent US20140087995A1 (published 2014).

The target in the test is T1, human amylin receptor (amylin 3(a) receptor: human calcitonin receptor with RAMP-3) (human, UniProt P30988 25-474; O60896 24-148).
T1 construct: whole, on cells; also called hAmylin-R; hAmylinR
T1 sequence (looked up) 1: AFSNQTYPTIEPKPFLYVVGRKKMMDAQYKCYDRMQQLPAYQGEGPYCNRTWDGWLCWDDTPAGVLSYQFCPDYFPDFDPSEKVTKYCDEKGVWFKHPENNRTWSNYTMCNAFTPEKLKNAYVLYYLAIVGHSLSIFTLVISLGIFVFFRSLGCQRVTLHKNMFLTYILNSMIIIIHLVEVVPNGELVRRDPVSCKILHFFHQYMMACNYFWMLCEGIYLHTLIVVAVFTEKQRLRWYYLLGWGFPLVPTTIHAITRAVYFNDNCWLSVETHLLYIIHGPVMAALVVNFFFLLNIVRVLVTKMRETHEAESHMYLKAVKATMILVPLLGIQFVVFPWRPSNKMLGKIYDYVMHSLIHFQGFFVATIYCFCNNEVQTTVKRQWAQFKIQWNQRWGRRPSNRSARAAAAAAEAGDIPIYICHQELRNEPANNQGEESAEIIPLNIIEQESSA
T1 sequence (looked up) 2: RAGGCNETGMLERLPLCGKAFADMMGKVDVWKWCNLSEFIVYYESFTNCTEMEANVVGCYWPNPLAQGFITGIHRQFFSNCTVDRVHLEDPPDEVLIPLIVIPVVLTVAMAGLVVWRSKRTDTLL
The test can be described thus: SPA displacement of 125I-rat amylin, hAmylin 3(a) receptor membranes. In outline: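 SPA beads + BHK amylin 3(a)/CRE-luc membranes, 35 ng/μL final; buffer 50 mM Hepes pH 7.4, 1 mM CaCl2, 5 mM MgCl₂, 0.1% OA, 0.02% Tween20. 120 min, 25° C, shaken; scintillation count. IC₅₀ by one-site binding competition fit, taken as receptor affinity.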
For orientation: Loss of bound radioactivity is the signal in a displacement assay; it reports binding, not function.

Numbered stars: 1 amine (or outer) side, 2 acyl side, 3 side chain; on linkers, the order of the positions; unused ones are H or OH. Bridge positions count the residues as written; N and C are the ends. Side chains are listed from the residue outwards. Ends that are not written are not given here. * marks the point of attachment. C20 diacid = O=C(O)CCCCCCCCCCCCCCCCCCC(=O)*; γGlu = O=C(O)[C@H](CCC(=O)[*:2])N[*:1]

B1: N^ε1-[(4S)-4-carboxy-4-[[(4S)-4-carboxy-4-(19-carboxynonadecanoylamino)butanoyl]amino]butanoyl]-[Glu14,Arg17,Pro21,Pro27,His34]-h-amylin (peptide)
peptide: K([γGlu-γGlu-C20 diacid])CNTATCATQRLAEFLRHSSPNFGAIPSSTNVGHNTY-NH2
modifications: disulfide 2-7; N-terminus assumed
SMILES: CC[C@H](C)[C@H](NC(=O)[C@H](C)NC(=O)CNC(=O)[C@H](Cc1ccccc1)NC(=O)[C@H](CC(N)=O)NC(=O)[C@@H]1CCCN1C(=O)[C@H](CO)NC(=O)[C@H](CO)NC(=O)[C@H](Cc1c[nH]cn1)NC(=O)[C@H](CCCNC(=N)N)NC(=O)[C@H](CC(C)C)NC(=O)[C@H](Cc1ccccc1)NC(=O)[C@H](CCC(=O)O)NC(=O)[C@H](C)NC(=O)[C@H](CC(C)C)NC(=O)[C@H](CCCNC(=N)N)NC(=O)[C@H](CCC(N)=O)NC(=O)[C@@H](NC(=O)[C@H](C)NC(=O)[C@@H]1CSSC[C@H](NC(=O)[C@@H](N)CCCCNC(=O)CC[C@H](NC(=O)CC[C@H](NC(=O)CCCCCCCCCCCCCCCCCCC(=O)O)C(=O)O)C(=O)O)C(=O)N[C@@H](CC(N)=O)C(=O)N[C@@H]([C@@H](C)O)C(=O)N[C@@H](C)C(=O)N[C@@H]([C@@H](C)O)C(=O)N1)[C@@H](C)O)C(=O)N1CCC[C@H]1C(=O)N[C@@H](CO)C(=O)N[C@@H](CO)C(=O)N[C@H](C(=O)N[C@@H](CC(N)=O)C(=O)N[C@H](C(=O)NCC(=O)N[C@@H](Cc1c[nH]cn1)C(=O)N[C@@H](CC(N)=O)C(=O)N[C@H](C(=O)N[C@@H](Cc1ccc(O)cc1)C(N)=O)[C@@H](C)O)C(C)C)[C@@H](C)O
notes: also called 87; compound 87
On to B1, for which the IC50 turned out to be 0.633 nM.

B2: N^ε1-[(4S)--4-carboxy-4-(19-carboxynonadecanoylamino)butanoyl]-[Glu14,Arg17,Pro21,Pro27,Pro37]-h-amylin (peptide)
peptide: K([γGlu-C20 diacid])CNTATCATQRLAEFLRHSSPNFGAIPSSTNVGSNTP-NH2
modifications: disulfide 2-7; N-terminus assumed
SMILES: CC[C@H](C)[C@H](NC(=O)[C@H](C)NC(=O)CNC(=O)[C@H](Cc1ccccc1)NC(=O)[C@H](CC(N)=O)NC(=O)[C@@H]1CCCN1C(=O)[C@H](CO)NC(=O)[C@H](CO)NC(=O)[C@H](Cc1c[nH]cn1)NC(=O)[C@H](CCCNC(=N)N)NC(=O)[C@H](CC(C)C)NC(=O)[C@H](Cc1ccccc1)NC(=O)[C@H](CCC(=O)O)NC(=O)[C@H](C)NC(=O)[C@H](CC(C)C)NC(=O)[C@H](CCCNC(=N)N)NC(=O)[C@H](CCC(N)=O)NC(=O)[C@@H](NC(=O)[C@H](C)NC(=O)[C@@H]1CSSC[C@H](NC(=O)[C@@H](N)CCCCNC(=O)CC[C@H](NC(=O)CCCCCCCCCCCCCCCCCCC(=O)O)C(=O)O)C(=O)N[C@@H](CC(N)=O)C(=O)N[C@@H]([C@@H](C)O)C(=O)N[C@@H](C)C(=O)N[C@@H]([C@@H](C)O)C(=O)N1)[C@@H](C)O)C(=O)N1CCC[C@H]1C(=O)N[C@@H](CO)C(=O)N[C@@H](CO)C(=O)N[C@H](C(=O)N[C@@H](CC(N)=O)C(=O)N[C@H](C(=O)NCC(=O)N[C@@H](CO)C(=O)N[C@@H](CC(N)=O)C(=O)N[C@H](C(=O)N1CCC[C@H]1C(N)=O)[C@@H](C)O)C(C)C)[C@@H](C)O
notes: also called 12; compound 12
Take B2: the IC50 stood at 0.142 nM.

B3: N^ε1-[(4S)-4-carboxy-4-[[(4S)-4-carboxy-4-(19-carboxynonadecanoylamino)butanoyl]amino]butanoyl]-[Glu14,Arg17,Pro21,Pro27,Pro37]-h-amylin (peptide)
peptide: K([γGlu-γGlu-C20 diacid])CNTATCATQRLAEFLRHSSPNFGAIPSSTNVGSNTP-NH2
modifications: disulfide 2-7; N-terminus assumed
SMILES: CC[C@H](C)[C@H](NC(=O)[C@H](C)NC(=O)CNC(=O)[C@H](Cc1ccccc1)NC(=O)[C@H](CC(N)=O)NC(=O)[C@@H]1CCCN1C(=O)[C@H](CO)NC(=O)[C@H](CO)NC(=O)[C@H](Cc1c[nH]cn1)NC(=O)[C@H](CCCNC(=N)N)NC(=O)[C@H](CC(C)C)NC(=O)[C@H](Cc1ccccc1)NC(=O)[C@H](CCC(=O)O)NC(=O)[C@H](C)NC(=O)[C@H](CC(C)C)NC(=O)[C@H](CCCNC(=N)N)NC(=O)[C@H](CCC(N)=O)NC(=O)[C@@H](NC(=O)[C@H](C)NC(=O)[C@@H]1CSSC[C@H](NC(=O)[C@@H](N)CCCCNC(=O)CC[C@H](NC(=O)CC[C@H](NC(=O)CCCCCCCCCCCCCCCCCCC(=O)O)C(=O)O)C(=O)O)C(=O)N[C@@H](CC(N)=O)C(=O)N[C@@H]([C@@H](C)O)C(=O)N[C@@H](C)C(=O)N[C@@H]([C@@H](C)O)C(=O)N1)[C@@H](C)O)C(=O)N1CCC[C@H]1C(=O)N[C@@H](CO)C(=O)N[C@@H](CO)C(=O)N[C@H](C(=O)N[C@@H](CC(N)=O)C(=O)N[C@H](C(=O)NCC(=O)N[C@@H](CO)C(=O)N[C@@H](CC(N)=O)C(=O)N[C@H](C(=O)N1CCC[C@H]1C(N)=O)[C@@H](C)O)C(C)C)[C@@H](C)O
notes: also called 13; compound 13
B3: the IC50 is 0.264 nM.

B4: N^ε1-[(4S)-4-carboxy-4-[[(4S)-4-carboxy-4-(19-carboxynonadecanoylamino)butanoyl]amino]butanoyl]-[His14,Arg17,Pro21,Pro27]-h-amylin (peptide)
peptide: K([γGlu-γGlu-C20 diacid])CNTATCATQRLAHFLRHSSPNFGAIPSSTNVGSNTY-NH2
modifications: disulfide 2-7; N-terminus assumed
SMILES: CC[C@H](C)[C@H](NC(=O)[C@H](C)NC(=O)CNC(=O)[C@H](Cc1ccccc1)NC(=O)[C@H](CC(N)=O)NC(=O)[C@@H]1CCCN1C(=O)[C@H](CO)NC(=O)[C@H](CO)NC(=O)[C@H](Cc1c[nH]cn1)NC(=O)[C@H](CCCNC(=N)N)NC(=O)[C@H](CC(C)C)NC(=O)[C@H](Cc1ccccc1)NC(=O)[C@H](Cc1c[nH]cn1)NC(=O)[C@H](C)NC(=O)[C@H](CC(C)C)NC(=O)[C@H](CCCNC(=N)N)NC(=O)[C@H](CCC(N)=O)NC(=O)[C@@H](NC(=O)[C@H](C)NC(=O)[C@@H]1CSSC[C@H](NC(=O)[C@@H](N)CCCCNC(=O)CC[C@H](NC(=O)CC[C@H](NC(=O)CCCCCCCCCCCCCCCCCCC(=O)O)C(=O)O)C(=O)O)C(=O)N[C@@H](CC(N)=O)C(=O)N[C@@H]([C@@H](C)O)C(=O)N[C@@H](C)C(=O)N[C@@H]([C@@H](C)O)C(=O)N1)[C@@H](C)O)C(=O)N1CCC[C@H]1C(=O)N[C@@H](CO)C(=O)N[C@@H](CO)C(=O)N[C@H](C(=O)N[C@@H](CC(N)=O)C(=O)N[C@H](C(=O)NCC(=O)N[C@@H](CO)C(=O)N[C@@H](CC(N)=O)C(=O)N[C@H](C(=O)N[C@@H](Cc1ccc(O)cc1)C(N)=O)[C@@H](C)O)C(C)C)[C@@H](C)O
notes: also called 92; compound 92
For the molecule B4, the IC50 came out at 0.179 nM.

B5: N^ε1N^ε1-[(4S)-4-carboxy-4-(19-carboxynonadecanoylamino)butanoyl]-[His14,Arg17,Pro21,Pro27,Pro34]-h-amylin (peptide)
peptide: K([γGlu-C20 diacid])CNTATCATQRLAHFLRHSSPNFGAIPSSTNVGPNTY-NH2
modifications: disulfide 2-7; N-terminus assumed
SMILES: CC[C@H](C)[C@H](NC(=O)[C@H](C)NC(=O)CNC(=O)[C@H](Cc1ccccc1)NC(=O)[C@H](CC(N)=O)NC(=O)[C@@H]1CCCN1C(=O)[C@H](CO)NC(=O)[C@H](CO)NC(=O)[C@H](Cc1c[nH]cn1)NC(=O)[C@H](CCCNC(=N)N)NC(=O)[C@H](CC(C)C)NC(=O)[C@H](Cc1ccccc1)NC(=O)[C@H](Cc1c[nH]cn1)NC(=O)[C@H](C)NC(=O)[C@H](CC(C)C)NC(=O)[C@H](CCCNC(=N)N)NC(=O)[C@H](CCC(N)=O)NC(=O)[C@@H](NC(=O)[C@H](C)NC(=O)[C@@H]1CSSC[C@H](NC(=O)[C@@H](N)CCCCNC(=O)CC[C@H](NC(=O)CCCCCCCCCCCCCCCCCCC(=O)O)C(=O)O)C(=O)N[C@@H](CC(N)=O)C(=O)N[C@@H]([C@@H](C)O)C(=O)N[C@@H](C)C(=O)N[C@@H]([C@@H](C)O)C(=O)N1)[C@@H](C)O)C(=O)N1CCC[C@H]1C(=O)N[C@@H](CO)C(=O)N[C@@H](CO)C(=O)N[C@H](C(=O)N[C@@H](CC(N)=O)C(=O)N[C@H](C(=O)NCC(=O)N1CCC[C@H]1C(=O)N[C@@H](CC(N)=O)C(=O)N[C@H](C(=O)N[C@@H](Cc1ccc(O)cc1)C(N)=O)[C@@H](C)O)C(C)C)[C@@H](C)O
notes: also called 67; compound 67
Turning to B5, the IC50 came out at 0.09 nM.

What is called IC50 is the midpoint of a concentration-inhibition curve.
